Data as given in IntAct's records for PubMed 24152121.

Key:
vp26a_mouse Vps26a = vp26a_mouse Vps26a (UniProt P40336)
vps29_mouse Vps29 = vps29_mouse Vps29 (UniProt Q9QZ88)

## Vacuolar protein sorting-associated protein 35 (Homo sapiens) (from UniProt Q96QK1) D620N
vp26a_mouse Vps26a
  effect of a mutation on the interaction: with no effect
vps29_mouse Vps29
  effect of a mutation on the interaction: with no effect
